# Results as given in paper PMC6224377 (2018).
# Positions count from the first letter of the chain named.
# B1: GK-5E1 (antibody, V domains shown)
# VH: QVTLKESGGDVVQPGRSLRLSCAASGFTFRTYGMHWVRQAPGKGPEWVALIWYDGSKKYYADSVKGRFTISRDNSKNTLYLQMNSLRAEDTAVYYCVRVRFGELYFQHWGQGTLVTVSS
# VL: not shown
# B2: GK-1E5 (antibody, V domains shown)
# VH: EVQLVESGGGVVQPGRSLRLSCAASGFTFRSYGMHWVRQAPGKGLEWVAIIWYDGSKKYYTDSVQGRFTISRDNSKNTLYLQMNSLRAEDTAVYYCARPGIAMTGLDYWGQGTLVTVSS
# VL: DIQLTQSPSTLSASVGDRVTITCRASQSISSWLAWYQQKPGKAPKLLIYKASSLESGVPSRFSGSGSGTEFTLTISSLQPDDFATYYCQQYNNYWTFGQGTKVEIK
# B3: GK-5A1 (antibody, V domains shown)
# VH: QVQLVESGGGVVQPGRSLRLSCAASGFTFSSYGMYWVRQAPGKGLEWVAVIWNDGSNKYYADSVKGRFTISRDNSKNTLYLQMNSLRAEDTAVYYCAREGSGWYDYYYGMDVWGQGTTVTVSS
# VL: B2 VL with D1E, Q3V, N93S, E104D
# Target: hROR2-ECD-Twin-Strep (soluble human ROR2 extracellular domain fused to a Twin-Strep-tag) (human, UniProt Q01974 34-403)
# Assay: SPR
# hROR2-ECD-Twin-Strep (soluble human ROR2 extracellular domain fused to a Twin-Strep-tag), sequence (Q01974 34-403): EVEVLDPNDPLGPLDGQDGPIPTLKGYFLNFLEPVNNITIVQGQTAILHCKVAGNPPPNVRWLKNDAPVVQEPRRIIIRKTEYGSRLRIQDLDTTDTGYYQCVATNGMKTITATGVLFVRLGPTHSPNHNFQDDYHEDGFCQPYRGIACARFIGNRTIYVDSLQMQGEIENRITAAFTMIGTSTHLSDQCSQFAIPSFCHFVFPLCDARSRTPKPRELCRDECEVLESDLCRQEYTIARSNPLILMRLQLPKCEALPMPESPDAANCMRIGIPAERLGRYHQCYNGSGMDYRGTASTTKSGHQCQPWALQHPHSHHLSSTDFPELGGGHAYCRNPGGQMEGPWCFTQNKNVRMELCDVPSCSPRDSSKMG
row,Kd,Binder
1,2.5 nM,B1
2,80.7 nM,B2
3,61.3 nM,B3
